In patent US20220204602A1 (published 2022):
“And” between values parts separate entries of the source, which are not always exact repeats. Identical values can stand only once.

T1: Cyno FcRn (Cynomolgus, UniProt Q8SPV9 24-297; Q8SPW0 21-119)
T1 chain 1: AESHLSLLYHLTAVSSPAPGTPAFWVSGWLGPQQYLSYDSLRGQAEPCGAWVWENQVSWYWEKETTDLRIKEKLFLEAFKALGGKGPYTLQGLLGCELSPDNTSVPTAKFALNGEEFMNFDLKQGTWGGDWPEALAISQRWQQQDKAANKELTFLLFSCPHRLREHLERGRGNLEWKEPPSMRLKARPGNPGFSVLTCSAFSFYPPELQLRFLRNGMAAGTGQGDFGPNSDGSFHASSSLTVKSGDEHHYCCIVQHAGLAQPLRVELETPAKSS
T1 chain 2: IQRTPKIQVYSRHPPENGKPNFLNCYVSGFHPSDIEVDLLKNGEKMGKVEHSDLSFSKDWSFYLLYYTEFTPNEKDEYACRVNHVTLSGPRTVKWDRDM

B1: anti-C5 mAb FMEH-IgG4PLA (antibody)
heavy: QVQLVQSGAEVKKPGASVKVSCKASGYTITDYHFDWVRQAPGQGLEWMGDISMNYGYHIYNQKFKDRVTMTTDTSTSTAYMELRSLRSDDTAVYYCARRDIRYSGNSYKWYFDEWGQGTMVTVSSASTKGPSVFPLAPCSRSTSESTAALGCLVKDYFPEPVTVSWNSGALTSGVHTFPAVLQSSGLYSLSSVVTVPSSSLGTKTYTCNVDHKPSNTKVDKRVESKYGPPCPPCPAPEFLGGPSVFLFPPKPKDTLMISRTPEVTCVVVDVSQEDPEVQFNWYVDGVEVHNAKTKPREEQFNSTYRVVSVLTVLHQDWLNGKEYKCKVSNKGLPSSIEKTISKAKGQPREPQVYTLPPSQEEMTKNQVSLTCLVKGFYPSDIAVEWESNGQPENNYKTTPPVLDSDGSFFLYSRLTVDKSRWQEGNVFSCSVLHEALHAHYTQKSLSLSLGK
light: DIQLTQSPSFLSASVGDRVTITCRTSKSISKHLAWYQQKPGKAPKLLIYSGSTLQSGVPSRFSGSGSGTEFTLTISSLQPEDFATYYCQQHNEYPYTFGQGTKLEIK
B2: parental mAb H1-8/L1-9 ScFV (scFv)
chain: MDWTWVFLFLLSVTAGVHSQVQLVQSGAEVKKPGASVKVSCKASGYTITDYHLDWVRQAPGQGLEWMGDISPNYGYTIYNQKFKDRVTMTTDTSTSTAYMELRSLRSDDTAVYYCARRDIRYSGNSYKWYFDVWGQGTMVTVSSMEAPAQLLFLLLLWLPDTTGDIQLTQSPSFLSASVGDRVTITCRTSKSISKHLAWYQQKPGKAPKLLIYSGSTLQSGVPSRFSGSGSGTEFTLTISSLQPEDFATYYCQQHNEYPYTFGQGTKLEIK
B3: scFV mutant clone 14C6 from mAb 1819 affinity maturation (T to H mutation in position 9 of VH CDR2) (scFv)
chain: B2 chain

Legend:
Cyno FcRn = target: T1, Cyno FcRn; assay: SPR (Biacore); pH 6.0
human complement C5 [1] = target: T2, human complement C5 (human, UniProt P01031 19-673; P01031 678-1676); assay: competition ELISA; pH 7.4
human complement C5 [2] = target: T2, human complement C5; assay: competition ELISA; pH 6.0

| Binder | Ka (Cyno FcRn) [M⁻¹] | EC50 (human complement C5 [1]) | EC50 (human complement C5 [2]) [µg/mL] |
| --- | --- | --- | --- |
| B1 | 7.13e+07 |  |  |
| B2 |  | 2.08 µg/mL and 1.62 µg/mL and 2.33 µg/mL |  |
| B3 |  | 0.404 µg/mL | 4.97 |
